Laboratory results from publication PMC3082530 (2011).

What was measured:
subtilisin Carlsberg [1] = molecular target: T1, subtilisin Carlsberg (Bacillus licheniformis, UniProt P00780); experiment: ITC
T1 chain: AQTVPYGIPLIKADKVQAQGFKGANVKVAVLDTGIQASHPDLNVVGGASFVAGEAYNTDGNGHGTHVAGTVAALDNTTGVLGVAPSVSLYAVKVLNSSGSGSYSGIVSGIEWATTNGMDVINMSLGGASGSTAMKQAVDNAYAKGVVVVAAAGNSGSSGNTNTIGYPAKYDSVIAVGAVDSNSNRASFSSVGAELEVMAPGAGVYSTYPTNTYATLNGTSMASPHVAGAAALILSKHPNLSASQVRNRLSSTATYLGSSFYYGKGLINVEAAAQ

subtilisin Carlsberg [2] = molecular target: T1, subtilisin Carlsberg; experiment: ITC; given as Ka

Binder: VCTEEY [VCTEEY peptide (CrSPI-1 domain 2 RSL)]
- Kd (subtilisin Carlsberg [1]): 500 µM
- Kd (subtilisin Carlsberg [2]): 526 µM
